Assay results: patent US7470669B2, “Isolated polypeptide comprising a leptin fragment” (Serono Genetics Institute, S.A., priority 1999, dated 2008)

What was measured:
LSR = LSR activity (oleate-induced 125I-LDL binding, uptake, degradation) in primary cultures of rat hepatocytes; assay type: cell-based
Method: FIGS. 6A, 6B, and 6C show the effect of leptin on ^125I-LDL and ^125I-chylomicron binding to LSR in primary cultures of rat hepatocytes. For FIG. 6A, primary cultures of rat hepatocytes (48 hours after plating) were incubated at 37° C. for 30 min in the absence (□) or presence (▪) of 50 ng/mL leptin in Buffer A, followed by a 20 min incubation at 37° C. with 0.5 mM oleate. The cells were then washed with ice-cold PBS, precooled for 10 min, and then incubated for 1 h at 4° C. with increasing concentrations of ^125I-LDL in Buffer A. Cells were washed, were lysed in 0.1 N NaOH and were counted for radioactivity. Results are shown as the mean of duplicate determinations. […] The media was recovered and the radioactivity was measured. […] The amount of ^125I-chylomicrons bound was determined, and results are shown as means±SD of triplicate (irrelevant) or quadruplicate (anti-LSR) determinations.
FIGS. 7A and 7B show a comparison of the effect of human and mouse leptin on LSR activity in rat hepatocytes and on postprandial increase in plasma TG in db^Pas/db^Pas mice. […] The media were removed and were analyzed for TCA-soluble degradation products. […] The data represent the difference in TG concentrations measured at t=0 and the average of the concentrations at 3 and 4 hours. […]

ob/ob mice = experiment: Food intake of ob/ob mice under daily subcutaneous injections; assay type: in vivo, mouse; conditions: daily subcutaneous injections of 25 μg over a 12 day period
Method: A synthetic peptide with a sequence identical to that of mouse leptin between residues 117-138 was obtained and found to stimulate the oleate-induced binding of ^125I-LDL in primary cultures of rat hepatocytes (FIG. 11B, insert). Daily subcutaneous injections of 25 μg of this synthetic leptin peptide to ob/ob mice had no effect on the food intake over a 12 day period (7.6±0.4 g/day in ob/ob receiving saline and 6.7±0.3 g/day in ob/ob receiving peptide; n=4, NS). Daily injections of 25 μg of mouse leptin caused a reduction of food intake to 4.7±0.5 g/day (n=3; p<0.003 versus controls).

B1: mouse leptin: recombinant mouse leptin, laboratory-prepared or commercial (Sigma, Calbiochem) (protein, UniProt P41160 22-167, looked up)
Leptin: VPIQKVQDDTKTLIKTIVTRINDISHTQSVSAKQRVTGLDFIPGLHPILSLSKMDQTLAVYQQVLTSLPSQNVLQIANDLENLRDLLHLLAFSKSCSLPQTSGLQKPESLDGVLEASLYSTEVVALSRLQGSLQDILQQLDVSPEC
stimulation of LSR-mediated LDL degradation in primary cultures of rat hepatocytes (LSR; 10 ng/mL recombinant leptin): more efficient than human leptin | oleate-induced 125I-LDL binding to the cell surface (LSR; rat hepatocytes, 30 min preincubation with 20 ng/mL at 37° C., binding at 4° C.): increased | food intake (ob/ob mice): 4.7 ± 0.5 g/day
